For this series, the target named is Tenascin-C (Homo sapiens) (UniProt P24821). In words: filter. The conditions noted are these: 2'-F all C and U; 2'-OMe all A and G except G1,G9,G28,G31,G34 (TN9 numbering) 2'-OH; (CH2CH2O)6 spacer replaces nt 10-26 (n in SEQ 64); 5' hexylamine; 3'-3' dT cap.

Drawing on patent US20060105378, this text covers Kd for one sequence.

pKd: −log10 of the molar value.

Tenascin-C (Homo sapiens), sequence (P24821 23-2201): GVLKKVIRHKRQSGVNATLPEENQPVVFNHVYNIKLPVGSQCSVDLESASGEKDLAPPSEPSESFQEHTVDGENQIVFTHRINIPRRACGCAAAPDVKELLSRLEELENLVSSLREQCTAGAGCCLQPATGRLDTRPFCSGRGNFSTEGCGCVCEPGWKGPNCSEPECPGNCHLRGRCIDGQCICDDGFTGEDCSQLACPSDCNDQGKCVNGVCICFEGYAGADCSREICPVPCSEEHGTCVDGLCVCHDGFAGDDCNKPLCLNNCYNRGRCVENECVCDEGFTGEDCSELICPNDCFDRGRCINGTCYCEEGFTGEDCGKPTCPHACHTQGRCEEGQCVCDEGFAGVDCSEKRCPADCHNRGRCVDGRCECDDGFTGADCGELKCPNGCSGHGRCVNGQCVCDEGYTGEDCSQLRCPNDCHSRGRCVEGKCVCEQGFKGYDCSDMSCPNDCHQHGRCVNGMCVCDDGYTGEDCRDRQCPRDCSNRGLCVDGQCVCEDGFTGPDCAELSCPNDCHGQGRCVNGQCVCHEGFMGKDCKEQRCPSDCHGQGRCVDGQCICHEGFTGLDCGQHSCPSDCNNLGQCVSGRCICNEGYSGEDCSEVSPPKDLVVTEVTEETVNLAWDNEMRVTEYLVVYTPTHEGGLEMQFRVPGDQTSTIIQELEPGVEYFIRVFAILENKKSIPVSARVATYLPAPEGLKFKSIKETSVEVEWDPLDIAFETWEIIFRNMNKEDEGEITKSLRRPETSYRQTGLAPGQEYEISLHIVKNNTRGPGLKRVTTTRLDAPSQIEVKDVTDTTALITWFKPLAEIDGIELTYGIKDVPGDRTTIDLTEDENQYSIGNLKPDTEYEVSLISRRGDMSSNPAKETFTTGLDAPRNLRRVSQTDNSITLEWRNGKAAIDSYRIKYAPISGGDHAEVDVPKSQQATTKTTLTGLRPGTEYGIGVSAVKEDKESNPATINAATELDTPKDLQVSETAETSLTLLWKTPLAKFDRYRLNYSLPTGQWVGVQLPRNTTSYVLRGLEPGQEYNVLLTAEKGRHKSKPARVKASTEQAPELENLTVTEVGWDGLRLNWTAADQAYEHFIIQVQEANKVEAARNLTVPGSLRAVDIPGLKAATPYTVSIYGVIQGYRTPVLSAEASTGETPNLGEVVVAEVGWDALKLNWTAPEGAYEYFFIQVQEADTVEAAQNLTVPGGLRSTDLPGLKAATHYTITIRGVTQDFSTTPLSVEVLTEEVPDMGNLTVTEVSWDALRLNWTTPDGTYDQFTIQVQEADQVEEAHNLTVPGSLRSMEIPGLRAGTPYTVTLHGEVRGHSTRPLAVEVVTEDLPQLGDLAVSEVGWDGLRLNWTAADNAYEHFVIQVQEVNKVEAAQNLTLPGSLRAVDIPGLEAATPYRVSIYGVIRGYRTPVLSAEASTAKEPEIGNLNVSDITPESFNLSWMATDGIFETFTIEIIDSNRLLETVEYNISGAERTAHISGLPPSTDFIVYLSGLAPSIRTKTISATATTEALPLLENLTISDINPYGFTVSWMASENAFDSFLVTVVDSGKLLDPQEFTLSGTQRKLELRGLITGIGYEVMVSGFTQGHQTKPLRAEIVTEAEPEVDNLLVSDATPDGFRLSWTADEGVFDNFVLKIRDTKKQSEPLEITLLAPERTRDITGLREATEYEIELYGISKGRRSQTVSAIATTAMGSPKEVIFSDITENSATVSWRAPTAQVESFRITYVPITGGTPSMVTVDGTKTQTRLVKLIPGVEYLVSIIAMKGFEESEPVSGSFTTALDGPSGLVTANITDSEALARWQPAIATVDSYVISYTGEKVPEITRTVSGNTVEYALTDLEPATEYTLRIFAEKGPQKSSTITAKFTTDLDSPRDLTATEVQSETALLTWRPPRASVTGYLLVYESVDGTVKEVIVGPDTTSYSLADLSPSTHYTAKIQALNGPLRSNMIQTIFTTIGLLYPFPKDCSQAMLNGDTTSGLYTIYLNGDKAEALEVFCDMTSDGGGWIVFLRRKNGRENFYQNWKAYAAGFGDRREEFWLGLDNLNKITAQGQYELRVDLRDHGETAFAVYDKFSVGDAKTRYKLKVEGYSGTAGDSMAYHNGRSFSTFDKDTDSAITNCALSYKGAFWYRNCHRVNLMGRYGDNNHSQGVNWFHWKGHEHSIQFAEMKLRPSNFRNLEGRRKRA

In turn, “GGGAGGACGNCGUCGCCGUAAUGGAUGUUUUGCUCCCUG [TTA1 (GS7641)]” had a negative-log Kd (pKd) of 8.30.
